Reference: IntAct's records for PubMed 26344566

Biological target: PEX5, P50542-3

Serine-protein kinase ATM (Homo sapiens), Q13315 R3047Q
effect of a mutation on the interaction: decreasing interaction strength
